One test has as its target STAT3 (human, UniProt P40763 2-770, limits assumed). As to the kind of experiment: cell-based or functional assay.
Test [1] deals with T1, STAT3 tagged with eGFP on its N-terminus (UniProt P40763 1-770).
T1 construct: Stably expressed inside living HEK293 cells; also called eGFP-STAT3; not shown: eGFP (enhanced green fluorescent protein) tag
As to the kind of experiment: FRET efficiency (1-D0/D1) by rhodamine photobleaching in living cells. From the text:
(§1) An additional cysteine residue was positioned at the C-terminus of penetratin to facilitate labeling. Excitation of eGFP (donor) was facilitated using a 488-nm light source, and the emission spectrum was detected. In the absence of energy transfer between eGFP and rhodamine, excitation of eGFP would lead to an emission peak at 520-540 nm, whereas energy transfer from eGFP to an adjacent rhodamine fluorochrome acceptor would cause an emission in the 560-600 nm range. […] To confirm that FRET was occurring, acceptor photobleaching was performed with a 561 nm laser using an LSM 510 confocal microscope (Zeiss).
(§2) Excitation of eGFP was facilitated, and the emission spectrum detected, in accordance with the methods described in Example 6. FRET efficiency was calculated using equation 1-D0/D1, where D0 is fluorescence intensity of eGFP before rhodamine photobleaching and D1 is the intensity after rhodamine photobleaching.

The target of test [2] is T2, eGFP-STAT1 (UniProt P42224 1-750).
T2 construct: Expressed inside living cells; not shown: eGFP (enhanced green fluorescent protein) tag
T2 sequence (looked up): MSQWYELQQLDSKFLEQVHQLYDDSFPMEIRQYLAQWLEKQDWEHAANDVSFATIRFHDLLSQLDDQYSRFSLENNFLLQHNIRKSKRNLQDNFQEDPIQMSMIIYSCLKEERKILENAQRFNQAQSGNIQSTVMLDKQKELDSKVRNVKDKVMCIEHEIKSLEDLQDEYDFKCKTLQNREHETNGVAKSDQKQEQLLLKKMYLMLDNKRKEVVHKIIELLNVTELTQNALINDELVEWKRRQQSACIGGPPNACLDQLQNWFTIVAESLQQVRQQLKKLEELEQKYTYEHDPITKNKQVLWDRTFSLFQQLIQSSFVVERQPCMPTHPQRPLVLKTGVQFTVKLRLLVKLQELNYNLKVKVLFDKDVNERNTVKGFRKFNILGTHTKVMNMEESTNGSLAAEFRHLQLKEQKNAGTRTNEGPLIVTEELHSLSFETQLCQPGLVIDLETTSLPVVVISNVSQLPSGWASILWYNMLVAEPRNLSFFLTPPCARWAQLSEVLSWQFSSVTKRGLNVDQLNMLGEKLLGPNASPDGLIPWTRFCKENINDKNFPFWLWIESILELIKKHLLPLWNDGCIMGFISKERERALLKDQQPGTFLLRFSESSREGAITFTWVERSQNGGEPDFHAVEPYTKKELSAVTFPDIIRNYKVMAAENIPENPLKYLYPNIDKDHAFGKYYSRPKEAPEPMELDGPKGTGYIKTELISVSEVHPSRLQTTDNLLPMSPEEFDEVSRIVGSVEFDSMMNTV
The test is described as above.
Text: as §1, §2

For a further test, the target named is T3, eGFP.
T3 construct: Control, expressed inside living cells
The test is described as above.
Text: as §1, §2

The target of test [3] is T2, eGFP-STAT1. As to the kind of experiment: FRET (eGFP donor, rhodamine acceptor, acceptor photobleaching) in living cells.

Square brackets hold non-standard residues; d marks the D form. Ends that are not written are not given here. rhodamine = not defined here; Nle = CCCC[C@H](N)C(=O)O

STAT3, sequence (P40763 2-770 limits assumed): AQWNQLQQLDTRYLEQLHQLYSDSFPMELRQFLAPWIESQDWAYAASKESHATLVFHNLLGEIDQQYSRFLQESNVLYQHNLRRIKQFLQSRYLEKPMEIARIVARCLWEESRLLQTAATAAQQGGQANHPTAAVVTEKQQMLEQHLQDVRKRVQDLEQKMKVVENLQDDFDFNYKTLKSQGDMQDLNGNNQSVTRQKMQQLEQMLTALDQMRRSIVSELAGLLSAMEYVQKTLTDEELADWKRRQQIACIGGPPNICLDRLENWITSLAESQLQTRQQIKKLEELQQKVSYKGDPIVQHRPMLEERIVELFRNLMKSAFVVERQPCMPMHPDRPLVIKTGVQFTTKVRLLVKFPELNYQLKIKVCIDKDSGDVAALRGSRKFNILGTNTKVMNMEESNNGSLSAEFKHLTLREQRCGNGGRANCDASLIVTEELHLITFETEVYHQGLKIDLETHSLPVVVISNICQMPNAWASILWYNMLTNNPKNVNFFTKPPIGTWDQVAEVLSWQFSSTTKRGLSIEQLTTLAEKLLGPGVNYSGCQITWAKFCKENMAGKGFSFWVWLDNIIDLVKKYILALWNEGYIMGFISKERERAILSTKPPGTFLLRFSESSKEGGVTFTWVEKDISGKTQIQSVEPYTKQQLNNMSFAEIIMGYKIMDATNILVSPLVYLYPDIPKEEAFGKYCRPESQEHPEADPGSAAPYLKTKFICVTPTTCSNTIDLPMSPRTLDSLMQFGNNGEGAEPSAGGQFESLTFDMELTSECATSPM
T1 sequence (P40763 whole entry): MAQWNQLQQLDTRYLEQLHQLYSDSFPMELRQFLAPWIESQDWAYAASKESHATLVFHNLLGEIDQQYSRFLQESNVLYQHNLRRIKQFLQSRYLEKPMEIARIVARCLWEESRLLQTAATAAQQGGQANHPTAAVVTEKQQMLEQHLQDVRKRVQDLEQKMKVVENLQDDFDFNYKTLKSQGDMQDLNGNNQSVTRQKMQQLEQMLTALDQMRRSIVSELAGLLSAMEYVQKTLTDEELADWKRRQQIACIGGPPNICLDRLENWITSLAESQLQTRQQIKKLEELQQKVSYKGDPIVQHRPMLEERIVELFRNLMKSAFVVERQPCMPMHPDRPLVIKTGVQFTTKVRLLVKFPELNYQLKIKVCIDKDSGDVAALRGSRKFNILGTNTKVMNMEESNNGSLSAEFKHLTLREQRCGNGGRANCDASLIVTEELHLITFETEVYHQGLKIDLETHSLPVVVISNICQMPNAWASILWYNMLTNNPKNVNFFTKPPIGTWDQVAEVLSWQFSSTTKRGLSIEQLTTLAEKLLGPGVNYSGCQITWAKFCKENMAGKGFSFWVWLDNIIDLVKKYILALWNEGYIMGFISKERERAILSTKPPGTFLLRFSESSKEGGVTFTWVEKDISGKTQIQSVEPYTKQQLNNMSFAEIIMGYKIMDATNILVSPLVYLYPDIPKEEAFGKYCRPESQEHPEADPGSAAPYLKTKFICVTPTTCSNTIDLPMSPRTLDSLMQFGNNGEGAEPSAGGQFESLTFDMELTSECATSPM

B1: Hel2A-3-Pen (peptide)
peptide: Ac-DTRYLEQLHALYRQIKIWFPNRR[Nle]KWKK-NH2
SMILES: CCCC[C@H](NC(=O)[C@H](CCCNC(=N)N)NC(=O)[C@H](CCCNC(=N)N)NC(=O)[C@H](CC(N)=O)NC(=O)[C@@H]1CCCN1C(=O)[C@H](Cc1ccccc1)NC(=O)[C@H](Cc1c[nH]c2ccccc12)NC(=O)[C@@H](NC(=O)[C@H](CCCCN)NC(=O)[C@@H](NC(=O)[C@H](CCC(N)=O)NC(=O)[C@H](CCCNC(=N)N)NC(=O)[C@H](Cc1ccc(O)cc1)NC(=O)[C@H](CC(C)C)NC(=O)[C@H](C)NC(=O)[C@H](Cc1c[nH]cn1)NC(=O)[C@H](CC(C)C)NC(=O)[C@H](CCC(N)=O)NC(=O)[C@H](CCC(=O)O)NC(=O)[C@H](CC(C)C)NC(=O)[C@H](Cc1ccc(O)cc1)NC(=O)[C@H](CCCNC(=N)N)NC(=O)[C@@H](NC(=O)[C@H](CC(=O)O)NC(C)=O)[C@@H](C)O)[C@@H](C)CC)[C@@H](C)CC)C(=O)N[C@@H](CCCCN)C(=O)N[C@@H](Cc1c[nH]c2ccccc12)C(=O)N[C@@H](CCCCN)C(=O)N[C@@H](CCCCN)C(N)=O
B1: the “Activity, % of control (luciferase reporter, GAS or STAT3 element, MCF-7 cells)” value with STAT3 was 89 % of control.

B2: rhodamine-labeled STAT3-HEL2A-2 (peptide)
peptide: LDTRYLEQLHKLYRQIKIWFPNRR[Nle]KWKKC(rhodamine)
modifications: not fully specified; reading uncertain
notes: Synthetic peptide; also called STAT3-HEL2A-2 labeled with rhodamine
B2: the FRET efficiency in test [1] was 90.8%; with eGFP-STAT1 [2], about 12.8%; with eGFP it was about 15.2%. Moreover, the binding result with eGFP-STAT1 [3] is “no binding”.

Source of the values: patent US20100184697A1 (U S OF AMERICA AS REPRESENTED BY THE SECRETAR, published 2010).
